The text below walks through data of ChEMBL document CHEMBL2074244, “Loss of ATP-dependent transport activity in pseudoxanthoma elasticum-associated mutants of human ABCC6 (MRP6)” (J Biol Chem, 2002).

Substrate in data set [1]: NC(CCC(=O)NC(CNCC(=O)O)CSCCN1C(=O)C=CC1=O)C(=O)O
The data set is described as follows: (§1) TP_TRANSPORTER: uptake in membrane vesicles from MRP6-expressing Sf9 cells. It is filed as functional, cell membranes, Membrane vesicle.

Substrate in data set [2]: CCCCC/C=C\C\C=C/C=C/C=C/[C@@H](SC[C@@H](NC(=O)CC[C@H](N)C(=O)O)C(=O)NCC(=O)O)[C@@H](O)CCCC(=O)O
The description is as §1. It is filed as functional, cell membranes, Membrane vesicle.

B1: ATP-binding cassette sub-family C member 6 (Homo sapiens) (protein)
chain: MAAPAEPCAGQGVWNQTEPEPAATSLLSLCFLRTAGVWVPPMYLWVLGPIYLLFIHHHGRGYLRMSPLFKAKMVLGFALIVLCTSSVAVALWKIQQGTPEAPEFLIHPTVWLTTMSFAVFLIHTERKKGVQSSGVLFGYWLLCFVLPATNAAQQASGAGFQSDPVRHLSTYLCLSLVVAQFVLSCLADQPPFFPEDPQQSNPCPETGAAFPSKATFWWVSGLVWRGYRRPLRPKDLWSLGRENSSEELVSRLEKEWMRNRSAARRHNKAIAFKRKGGSGMKAPETEPFLRQEGSQWRPLLKAIWQVFHSTFLLGTLSLIISDVFRFTVPKLLSLFLEFIGDPKPPAWKGYLLAVLMFLSACLQTLFEQQNMYRLKVLQMRLRSAITGLVYRKVLALSSGSRKASAVGDVVNLVSVDVQRLTESVLYLNGLWLPLVWIVVCFVYLWQLLGPSALTAIAVFLSLLPLNFFISKKRNHHQEEQMRQKDSRARLTSSILRNSKTIKFHGWEGAFLDRVLGIRGQELGALRTSGLLFSVSLVSFQVSTFLVALVVFAVHTLVAENAMNAEKAFVTLTVLNILNKAQAFLPFSIHSLVQARVSFDRLVTFLCLEEVDPGVVDSSSSGSAAGKDCITIHSATFAWSQESPPCLHRINLTVPQGCLLAVVGPVGAGKSSLLSALLGELSKVEGFVSIEGAVAYVPQEAWVQNTSVVENVCFGQELDPPWLERVLEACALQPDVDSFPEGIHTSIGEQGMNLSGGQKQRLSLARAVYRKAAVYLLDDPLAALDAHVGQHVFNQVIGPGGLLQGTTRILVTHALHILPQADWIIVLANGAIAEMGSYQELLQRKGALMCLLDQARQPGDRGEGETEPGTSTKDPRGTSAGRRPELRRERSIKSVPEKDRTTSEAQTEVPLDDPDRAGWPAGKDSIQYGRVKATVHLAYLRAVGTPLCLYALFLFLCQQVASFCRGYWLSLWADDPAVGGQQTQAALRGGIFGLLGCLQAIGLFASMAAVLLGGARASRLLFQRLLWDVVRSPISFFERTPIGHLLNRFSKETDTVDVDIPDKLRSLLMYAFGLLEVSLVVAVATPLATVAILPLFLLYAGFQSLYVVSSCQLRRLESASYSSVCSHMAETFQGSTVVRAFRTQAPFVAQNNARVDESQRISFPRLVADRWLAANVELLGNGLVFAAATCAVLSKAHLSAGLVGFSVSAALQVTQTLQWVVRNWTDLENSIVSVERMQDYAWTPKEAPWRLPTCAAQPPWPQGGQIEFRDFGLRYRPELPLAVQGVSFKIHAGEKVGIVGRTGAGKSSLASGLLRLQEAAEGGIWIDGVPIAHVGLHTLRSRISIIPQDPILFPGSLRMNLDLLQEHSDEAIWAALETVQLKALVASLPGQLQYKCADRGEDLSVGQKQLLCLARALLRKTQILILDEATAAVDPGTELQMQAMLGSWFAQCTVLLIAHRLRSVMDCARVLVMDKGQVAESGSPAQLLAQKGLFYRLAQESGLV
Regarding B1, the Km came to 282 µM in data set [1] and 0.6 µM in data set [2].
